Data published in the domain aggregation screens of Martell et al. (2025).

Assay: soluble fraction after stress (log2 fold change); higher = more stays soluble; pooled small domains, quantitative proteomics
Details: stress: 75 degC
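Note: 20 min heating vs room temperature control held 20 min.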

Sequence | soluble fraction (log2)
HMTRLSSREAQVISLVRDGMTNQQIAERLELSPLTIKNHVQNILRKLDVSNRAQAVAKAVKARLI | -0.774
HMTRRGPLTEGDRVQVRDPKGRFHQVILVRGGRFQSNRGGFNHDDVIGRPDGQVIITDEGRQFQIL | 0.493
HMTRYEQLAAQIRQQIEDNIWQSGDRLPSLRDTVKQSGLSLMTVLQSYQLLESQGWITARPQSGYYVAHR | 0.284
HMTSGTLTLTQDTPVYTEPNKDGGVAYVQPQGDIQWDKYIFANGDNWYSFVQKNRDQEVRFYIAYSDVG | -0.561
HMTSHSFVITEEVGQRLDRFISDQLDTVSRTMIQKHIRSGAVVVNGKQVKSNYLLVLNDRINIALK | -2.75
HMTSISMDEKVVLGWHQVTTGAANSGMDKVVSNTSGLNVISPTWFKLSDNKGNYISIASKDYVDAAHKKGL | -0.108
HMTSKTLSADGGENTRLDKFLSNHLPEISRTKIQKMINDGLVYVNQNYAKASLVLDGTELISYTIPD | -0.0211
HMTSLTDDELSVVMLVREREISFDEITSETGFDAARLNSVLTMLKIKGIIDETTGKHYRISGGA | -1.01
HMTSLVRTSNLDGFEPLARSIGVDPVMELMRFGIPPDALIRENMFISFIGFIRLLEHTALAG | 0.364
HMTSMYYLNKAVKEGNAKAIRQLLSAGININVRKRETSTPLDFAIKYKQTEIADLLRKHGGKTAEELKAEE | -0.668
HMTSNEKARNAASAERRADIVAAARELYEEQGLSKTSVQDITNRMGVARSLFYHYFPDKEAVTSAVLDDYV | 0.0232
HMTSPELIELGERIRKRRQEMNLSQEALAEKAGISINTVSRVEGGQTAMSIEIFRKMIEILETDANGL | -0.586
HMTSRIHDYWTSPGQPGYAKIGWGTAGDFRRAKALIGEKIAANSPEDMRYLNQIIAQWHFDALGYWPGDH | -3
HMTSRLLTPRQRYVFDTAMKEGFYDVPRRITLTELASVLDVAKSTLSAQLHRIESTVHHAYADDIRRRS | -2.55
HMTSSQLNIEELERRMMMHLEQNGFITRSIYTNLTGRLKWKATEDLKIFVEKGLIRKMGRGNQMYYVKVE | -1.74
HMTSSQRDSILEFLKTRKDHPTADVVYMNVRKSFPNISLGTVYRNLTLLSDIGQIAKIRVGDGVDHFDADT | -0.505
HMTSSSGTITADWLNVRSGAGTNFSRLGSIAGGTRLTVISVHGEWYKITASFEGEIRTGYVHSQYVQMDGE | -3.87
HMTSTEQQIEQFIGTLVSLGGSAGNQRLLEALGWQDSIYQRVKQQLIDDGRIRPGRGRGGSVVLAE | -0.576
HMTSVAGIERFLASGAIKGMGAATAKLIVEHFGADTLNMLDMYPERLTEIKGIGPKKATAIIEGYRELS | -0.897
HMTSVMAWRLITPIPQHGIIRSSQVQLQKHAPNSLKFLDVDSSPVGKQVKHGIAAGHWLSKDDFTE | -1.05
HMTTAASIGRLVRDARKQRGLTQHELASLLSTSQSAIHRIESGNQNLSLEMINRIAQALESPLIVPGG | -0.377
HMTTIRQQAEVPLSAAGRRFDQALAEMFPAYSRSRLSGWIKAGAATLDGAPAAPRQLLRGGERVELDVELE | -0.166
HMTTKGGLVRDTVLNEFRDSEFTRREVELVLNGVASERTIRGALSEMVERGELTQVNFGISTRYRLNQ | -0.563
HMTTLEGIEKYLGSGMIRGIGPAYAGRLTKVFGEAVFDVIEQSPERLREVEGIGPKRVSRIVSGWAEQ | -0.31
HMTTLLNHLKGTRLEAGLSQQALARLAGISRQAYSALESGSSNPSTEVALRLARALKTSVDHLFSLPE | -1.09
HMTTQVPYTAKLININGGSVVNFRKEPGMNTTIIRTYPVGTEVTVLETGVNWSKVEIDGVTGYVSSYFL | -2.33

Sequence | soluble fraction (log2)
HMTTRLLTPRQRQVFDIAIREGFYDSPRRISLTELADLLGVAKSTLSVQLQRVESTIVHTFSEEIRRRS | -2.66
HMTTRQREALLDYLSRHPDQPLTVREIAAGVEPDGVSLSAVYRNLAELEAAGLIRRESRPGSREAVVQYV | -0.0192
HMTTTTTYITNTDAVNIRQQATTSSTSLGKLAKNTILSVKKKSGDWYQITYKKQTAYIHASLVDKKTAKVT | -1.62
HMTTVDYDALRAAILQQVVSEDTTPALTTENTEIKYKFKFGLDTWVDLDGGKIAPAVSAKSYEIQISFKG | 0.185
HMTTYVNGSWSGWNGSTVVKLTDGSVWRQAEYHYEYHYAYRPQARLERDELFVEGMSRGVRV | -0.0587
HMTVADMQQKANVKRRNSNSHEAILDATVKLLGSSGYIDFSIEKVASQAGVGKQTIYRWWPSRADLVLEVW | -0.506
HMTVAEVEDRMEASRVRQALDAVGEPHRTTIALAYFTGLTHTEIAQRMGVPLGTVKSRIRDGMAKMRTHLG | -1.24
HMTVDHDERRSMILEAFMRLAAREGLHAVSLRGVAAEAGISLRLVQYYFETKARLMQSGLTALET | -0.141
HMTVKKLIINEDNSGRRIDNYLLSIFNSVPRSKIYNIIRKGEVRVNSSRIKPSYRLEEGDQVRIPPNLDYT | -1.05
HMTVKRNILQELLKTAFKHPEDFRPSKTFYGETGIGQKRFWALYYGHKAVTQKEYYAVADYLG | -0.0737
HMTVLDYNENVLSKVMNAAEINDSDKEAFIAFAKDYNSDDNLYLKKEELETAAGAWNARNVE | 0.2
HMTVLTDEIKVILISYIKENDFKKKHGNRKMMMTAQDMYDELVEKGYKISYPTVTQYVQKYRENETT | -1.63
HMTVMTGSQRRKKILELMRDAKEPLSGGALGKETGVSRHVVVQDIALLRTQGYPIVATARGYIINE | -1.32
HMTVRLSVSADGKFFWNESQVSEEELFPRLQAEAAKEPQPDLHIRGDKNVRYEFVAQAMAAAQRAGVRKI | -0.797
HMTVSADQTAADAVIKLINAIGTVSENSGSAISAARSGYDALTDTQKKLVTNYNKLTQAEQVFSSLPS | 0.336
HMTVSGNIAGDYKDYLPQKTDVINGMTVTYRMVDDAVYLASWKHAGQNHVFLFNDPVSVERAREMI | -0.556
HMTVSIDSLFDKFEDLQEQGLGDKTEEGQELRGLIRAFIEQEHLSVRITRSTSNQELLDMIEEAMQ | -1.25
HMTVSRRYTENEMETALKAYLATHNFISRRDMQQEFALTIYSARKWLNHFVDVGLIERIGLKNAPIYKL | -0.0893
HMTVTKYGKKILEIVSSSRSHMTAEEIFDALRQTYPTVVLATVYNNLNRLWQDDLIRKVSVEGMPDRYD | -1.28
HMTVVPNIVNQPEAAGTNLLISSNLKPGNRAVQYSDTVKAGDIISQSPEPGAQATLGGKVDYVISQGPAPT | 0.174
HMTWIAEIELRLMGNGAVTGAKIVKSTDLKDVDAAIYRAALEASPYPAPESGIGGRFTIKLKY | -0.037
HMTYLIKFDENGRRSDTYVAEEKTQEQVTELLEKGFVLITEEDYQLLVGNVDGKEYIRNADGTYSEYT | 0.563
HMTYMWTTDGVNLRSEPNTDSAVVTVLGVGTQVRMIGEEDGWVKVSFNDQEGYIRADFLTTE | -0.198
HMTYSAFITARNKRIAEEYSVLLDSLNISNNVIYRLGSWVVEVNVSDHSRAIDEIYSYERSGRIDKV | -3.1
HMTYYEGYYRKNQKGFGFVIVDGRDEDIYIDAKNMNGALNNDLVVVEELKGQNGKKTEGRVVKVLKKE | -0.17
HMVADLSGVGDKDIIVDQFIYHEVLPKETIYSIVKSFNVTSEDLNKNNPFLRANGLRIGQVIRIPLKI | -1.27

Sequence | soluble fraction (log2)
HMVAEPTYGRTTDVLNIRSGPSTDDERIGQLSRGAVVTILEEKDGWYRLQRGYISADYVTQISAEEASNS | -0.0612
HMVAEPVYGKVTEGPLNVRSAPSTDSEKVDSFSTGKVLTILETLDGWYKVEEGYVSADYVTIIDAAEAASS | -0.162
HMVAGHLSEKKGYYYAVLNYKDYTGKRKSKWVSTGLPVKGNKRRAEKILADIKRDFVPEEPKR | -0.96
HMVAGQDPVKRQQILDGAKRVFLGVGFDAASMNDITREAGVSKGTIYVYFGSKEELFGALIDR | -0.828
HMVAMLDASYRGVMQTISTLLAQGNTERAYDEAVNARGQMSKQQWNNLANLIWERTGQKIDSGVSYK | 0.367
HMVDEAQSLERNVLLTVLSRIGRDSRVVLTHDIAQRDNLRVGRHDGVVAVVDRLKGHPLFAHVTL | 0.163
HMVDERMVTYINSLDKGNTPFLNELEKEALANYVPIIRREMQSFLKVLLQIKAPLRILEVGTAVGFSTILM | 0.0501
HMVDGAHKQQAAVQALTPALKVLAAAPEGKKGQAIQALRAVLKQHGRWLDDATAQQVHEQLLAAGDAQGWQ | 0.478
HMVDIGQSIRVELIREGKDSHQAVGYLRDGSMVVVNHGRKLIGSTVEVEITSIVPSSAGKVIFAEYLE | -2.67
HMVDIQTGQKVRIHTSQFAGKIGNITALNVKSAELPNGIRTATASILMQSNENVMLPVSNFDIIE | -0.0419
HMVDIVLDILKIVAEKQPGNQFSQSILMQYQERGGLSKKQLEGLYGKAKRIPEIPQNKLATLEAIILR | -1.84
HMVDKNDLTAIDGIGPFLEKKLNDVGVFTYADIAGWDAAKIEEITQQISFFEGRIEKDDWVGQAQKLIDDQ | -0.124
HMVDKSYIHNQQVASDTWTVQHNLGKYPAVSVADTGNNEVYGDVRHINENTVELKFSHPFSGVAFF | 0.61
HMVDKTMYDRYAVDDYVRVIDGPLVGTEGRIIELDRETGNVKIEAVFFGRVTTADINFALIEKVD | -0.717
HMVDLDIENYELEDILNLFRLQYNFVEADLKRAYRMALKLHPDKSGLDGEYFRFYMKAYKIVENIFNFRNR | -1.5
HMVDSVIGSVGRVTVDIDNVEALGQVKLGGMEWSARSTSGDPIPAGTEVRVDRVEGVKVFVTPV | -0.117
HMVDVEMLTTVSDHIEAKLLQGILENHGIPSYSVDEESGEYMRVYMGYSIFGEKIYVRASDLLAAQGYL | -2.23
HMVDWTFPVLVKDVVMMGRYGHMGFLRIPGKKDFESVDNALAKVGMVEYAKQQIGELSGGQR | -0.019
HMVDYSMEDSVWNNKKEHVNEWFDANPEHEGRRVIVDGLFAIGDAQPDLRKRHWSSISVVFADLDNSPIG | -0.327
HMVEDPADNQKAADAVIKKISEIGEVTESSENLIKEARASYDALTDNQKELVTNYDVLVQAEAQLENIKD | 0.282
HMVEEVDYGTFMRMIEEKNIGKVEVRAGEIVFTDKDEKQIYKTGAMEDATLTQRLYESGAEFSKDV | -0.0507
HMVEGVSLVEIYVDENSKYNGKLLSEIPKKENTLVIMIQRGEQVIIPHGNIRLESGDMLVVSKTEI | -2.71
HMVEKNALSEEIEGYVNKYGKDRSSLMPVLQAIQRKHSYINDFAQQEVARLLDIHPVEVFSVISFYSFLH | -2.21
HMVEKRLFPQISDAGKRLDLFLAGALAISRTMVVKIIKDGGVLVNGKAAKASYRLAGDEELLVSYEEP | -3.48
